Reference: paper doi:10.1101/431494

What was measured:
[1] = target: Haliangium ochraceum encapsulated ferritin as crystallised (PDB 5N5F) (Haliangium ochraceum) (UniProt D0LZ73); assay: crystal structure
[2] = target: Haliangium ochraceum encapsulated ferritin, residues 1-98, C-terminal hexa-histidine tagged variant (Haliangium ochraceum) (UniProt D0LZ73); assay: SDS-PAGE

Substance	stoichiometry N [1]	stoichiometry N [2]
Haliangium ochraceum encapsulated ferritin as crystallised (PDB 5N5F) (from UniProt D0LZ73 1-98) (domain or fragment)	10	–
Haliangium ochraceum encapsulated ferritin, residues 1-98, C-terminal hexa-histidine tagged variant (from UniProt D0LZ73 1-98) (domain or fragment)	–	2
